Measured values as given in article PMC6053351, “Structural and biochemical insights into human zinc finger protein AEBP2 reveals interactions with RBBP4” (Protein & Cell, 2017).
Blank lines part the entries; values can stand above or below the binder they belong to.

Experiments:
Settings in all cases: both partners purified
[1] = target: T1, RBBP4, full-length, wild type (UniProt Q09028 1-425); assay: ITC; AEBP2_(379–390) peptide titrated into RBBP4; one-site binding model, Origin 7
T1 construct: RBBP4 (also known as RbAp48), full-length; also called RbAp48; apo RBBP4
T1 sequence (Q09028 whole entry): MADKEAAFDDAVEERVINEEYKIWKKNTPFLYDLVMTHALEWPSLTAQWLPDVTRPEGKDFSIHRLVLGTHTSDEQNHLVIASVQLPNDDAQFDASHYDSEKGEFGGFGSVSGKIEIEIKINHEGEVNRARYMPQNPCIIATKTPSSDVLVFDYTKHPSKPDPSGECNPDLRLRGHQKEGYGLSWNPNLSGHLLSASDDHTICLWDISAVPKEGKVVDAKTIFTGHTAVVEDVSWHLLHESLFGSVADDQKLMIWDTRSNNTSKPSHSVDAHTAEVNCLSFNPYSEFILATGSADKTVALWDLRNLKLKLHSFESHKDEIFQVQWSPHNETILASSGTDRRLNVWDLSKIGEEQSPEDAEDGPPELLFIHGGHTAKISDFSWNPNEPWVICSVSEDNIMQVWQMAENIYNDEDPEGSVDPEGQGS

RBBP4 Glu231Ala = target: T2, RBBP4 Glu231Ala (UniProt Q09028 1-425, Glu231Ala); assay: as above
T2 construct: RBBP4 with the mutation Glu231Ala; parent is the wild-type RBBP4 of m1; also called RBBP4 E231A
T2 sequence (Q09028 whole entry E231A): as the sequence (Q09028 whole entry) above, with E231A counted along it

[2] = target: T3, RBBP4 Glu126Ala/Asn128Ala/Glu179Ala (UniProt Q09028 1-425, Glu126Ala | Asn128Ala | Glu179Ala); assay: as above
T3 construct: RBBP4 with the mutations Glu126Ala/Asn128Ala/Glu179Ala; parent is the wild-type RBBP4 of m1; also called RBBP4 E126A/N128A/E179A
T3 sequence (Q09028 whole entry E126A/N128A/E179A): as the sequence (Q09028 whole entry) above, with E126A, N128A, E179A counted along it

[3] = target: T1, RBBP4, full-length, wild type; assay: SEC; gel filtration on a Superdex 200 10/300 GL column; RBBP4 mixed with excess AEBP2 ZF-RRK, against apo RBBP4 and apo ZF-RRK; SDS-PAGE of the peaks

Kd [1]: 7.6 ± 0.6 µM
dH [1]: -15.9 ± 0.395 kcal/mol
fold reduction of binding affinity against wild-type RBBP4 (RBBP4 Glu231Ala): 5 fold
fold reduction of binding affinity against wild-type RBBP4 [2]: 7 fold
B1: AEBP2_(379–390) peptide (RRK-rich motif, residues Lys379–Ser390) (peptide, UniProt Q6ZN18-1 379-390, looked up)
peptide: KRRKLKNKRRRS
notes: AEBP2, human, RRK-rich motif, residues Lys379–Ser390 of Uniprot entry Q6ZN18-1; source: synthetic peptide

fold reduction of binding affinity against the wild-type peptide [1]: ~20 fold
B2: AEBP2_(379–390) peptide with mutations Arg380Ala/Lys382Ala (peptide, UniProt Q6ZN18-1 379-390, looked up)
peptide: KARALKNKRRRS
notes: AEBP2, human, residues Lys379–Ser390 of Uniprot entry Q6ZN18-1 with Arg380Ala/Lys382Ala

binding result [3]: binds
B3: AEBP2 ZF-RRK (ZF1–3 and the RRK-rich motif, residues Asn258–Asp396) (domain or fragment, human, UniProt Q6ZN18-1 258-396, looked up)
chain: NIAYNCCWDQCQACFNSSPDLADHIRSIHVDGQRGGVFVCLWKGCKVYNTPSTSQSWLQRHMLTHSGDKPFKCVVGGCNASFASQGGLARHVPTHFSQQNSSKVSSQPKAKEESPSKAGMNKRRKLKNKRRRSLPRPHD
notes: AEBP2, human, residues Asn258–Asp396 (numbering as for Uniprot entry Q6ZN18-1); also called apo AEBP2 ZF-RRK; source: recombinant protein
